± gives the standard deviation of the averaged measurements.
B1: library; a variant is named by its letters at N, in order (parent)
chain: GCUGUCACCGGUGCUUGGUACGUUAUAUUCAGCCGGUCUGAUGAGUCUNNNNNNAGACGAAACAGC

Experiments:
(6R,S)-folinic acid [1] = variants of: B1; experiment: normalized RNA/DNA level without ligand (relative to sTRSVctl = 100) (log10 (% of sTRSVctl)); HEK293T overexpressing SLC46A1; higher = less ribozyme self-cleavage, higher mRNA level; conditions: without (6R,S)-folinic acid; ligand present: no
How it was run: (§1)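 Ribozyme switch library plasmids linked to reporters were introduced into HEK293T cells at 4 µg per 6-well well, with ligand, if any, added 1 h before. Total RNA was extracted with EDTA 72 h later, reverse-transcribed, amplified, barcoded and sequenced. RNA level was computed from RNA over DNA reads relative to a spiked-in non-cleaving sequence or the top sequences, then scaled and log-transformed. The top set was 25 sequences, values were ×100 and log10, and the cutoff was ≥100 DNA reads.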

(6R,S)-folinic acid [2] = variants of: B1; experiment: normalized RNA/DNA level with ligand (relative to sTRSVctl = 100) (log10 (% of sTRSVctl)); HEK293T overexpressing SLC46A1; ligand concentration (+) RNA-Seq: 6 mM; higher = less ribozyme self-cleavage, higher mRNA level; conditions: with (6R,S)-folinic acid; ligand present: yes
How it was run: as §1

| Variant | normalized RNA/DNA level without ligand (log10) ((6R,S)-folinic acid [1]) | normalized RNA/DNA level with ligand (log10) ((6R,S)-folinic acid [2]) |
| --- | --- | --- |
| GCUGUCACCGGUGCUUGGUACGUUAUAUUCAGCCGGUCUGAUGAGUCUCGUGUCAGACGAAACAGC [CGUGUC] | 2.0808 ± 0.0006 | 2.07 ± 0.043 |
| GCUGUCACCGGUGCUUGGUACGUUAUAUUCAGCCGGUCUGAUGAGUCUCGUGUUAGACGAAACAGC [CGUGUU] | 2.001 ± 0.016 | 2.03 ± 0.057 |
| GCUGUCACCGGUGCUUGGUACGUUAUAUUCAGCCGGUCUGAUGAGUCUCGUGUAAGACGAAACAGC [CGUGUA] | 1.981 ± 0.009 | 2 ± 0.028 |
| GCUGUCACCGGUGCUUGGUACGUUAUAUUCAGCCGGUCUGAUGAGUCUCGUGUGAGACGAAACAGC [CGUGUG] | 1.972 ± 0.015 | 1.99 ± 0.032 |
| GCUGUCACCGGUGCUUGGUACGUUAUAUUCAGCCGGUCUGAUGAGUCUUGUUCGAGACGAAACAGC [UGUUCG] | 1.761 ± 0.017 | 1.96 ± 0.031 |
| GCUGUCACCGGUGCUUGGUACGUUAUAUUCAGCCGGUCUGAUGAGUCUUGUUCUAGACGAAACAGC [UGUUCU] | 2.031 ± 0.0043 | 2.08 ± 0.035 |
| GCUGUCACCGGUGCUUGGUACGUUAUAUUCAGCCGGUCUGAUGAGUCUUGUUCAAGACGAAACAGC [UGUUCA] | 1.991 ± 0.012 | 2.0188 ± 0.0011 |
| GCUGUCACCGGUGCUUGGUACGUUAUAUUCAGCCGGUCUGAUGAGUCUAGUGUGAGACGAAACAGC [AGUGUG] | 1.78 ± 0.018 | 1.97 ± 0.01 |
| GCUGUCACCGGUGCUUGGUACGUUAUAUUCAGCCGGUCUGAUGAGUCUAGUGUUAGACGAAACAGC [AGUGUU] | 2.026 ± 0.011 | 2.04 ± 0.027 |
| GCUGUCACCGGUGCUUGGUACGUUAUAUUCAGCCGGUCUGAUGAGUCUAGUGUAAGACGAAACAGC [AGUGUA] | 1.942 ± 0.007 | 2 ± 0.05 |
| GCUGUCACCGGUGCUUGGUACGUUAUAUUCAGCCGGUCUGAUGAGUCUAGUGUCAGACGAAACAGC [AGUGUC] | 2.054 ± 0.0091 | 2 ± 0.046 |
| GCUGUCACCGGUGCUUGGUACGUUAUAUUCAGCCGGUCUGAUGAGUCUGGUGUCAGACGAAACAGC [GGUGUC] | 2.051 ± 0.019 | 2.01 ± 0.028 |
| GCUGUCACCGGUGCUUGGUACGUUAUAUUCAGCCGGUCUGAUGAGUCUGGUGUUAGACGAAACAGC [GGUGUU] | 2.029 ± 0.0064 | 2.02 ± 0.041 |
| GCUGUCACCGGUGCUUGGUACGUUAUAUUCAGCCGGUCUGAUGAGUCUGGUGUAAGACGAAACAGC [GGUGUA] | 1.972 ± 0.01 | 2.01 ± 0.02 |
| GCUGUCACCGGUGCUUGGUACGUUAUAUUCAGCCGGUCUGAUGAGUCUGGUGUGAGACGAAACAGC [GGUGUG] | 1.98 ± 0.014 | 2.04 ± 0.034 |
| GCUGUCACCGGUGCUUGGUACGUUAUAUUCAGCCGGUCUGAUGAGUCUUGUUAUAGACGAAACAGC [UGUUAU] | 1.95 ± 0.028 | 1.975 ± 0.0073 |
| GCUGUCACCGGUGCUUGGUACGUUAUAUUCAGCCGGUCUGAUGAGUCUGGUUCGAGACGAAACAGC [GGUUCG] | 2.0485 ± 5.4e-05 | 2.06 ± 0.048 |
| GCUGUCACCGGUGCUUGGUACGUUAUAUUCAGCCGGUCUGAUGAGUCUGGUUCCAGACGAAACAGC [GGUUCC] | 2.028 ± 0.018 | 2.03 ± 0.037 |
| GCUGUCACCGGUGCUUGGUACGUUAUAUUCAGCCGGUCUGAUGAGUCUGGUUCAAGACGAAACAGC [GGUUCA] | 1.99 ± 0.02 | 2 ± 0.036 |
| GCUGUCACCGGUGCUUGGUACGUUAUAUUCAGCCGGUCUGAUGAGUCUGGUUCUAGACGAAACAGC [GGUUCU] | 2.0626 ± 0.0019 | 2.05 ± 0.049 |
| GCUGUCACCGGUGCUUGGUACGUUAUAUUCAGCCGGUCUGAUGAGUCUUGUUGCAGACGAAACAGC [UGUUGC] | 1.98 ± 0.024 | 2.059 ± 0.0084 |

| Variant | normalized RNA/DNA level without ligand (log10) ((6R,S)-folinic acid [1]) | normalized RNA/DNA level with ligand (log10) ((6R,S)-folinic acid [2]) |
| --- | --- | --- |
| GCUGUCACCGGUGCUUGGUACGUUAUAUUCAGCCGGUCUGAUGAGUCUGGUUACAGACGAAACAGC [GGUUAC] | 1.999 ± 0.0035 | 2 ± 0.038 |
| GCUGUCACCGGUGCUUGGUACGUUAUAUUCAGCCGGUCUGAUGAGUCUGGUUAAAGACGAAACAGC [GGUUAA] | 1.987 ± 0.0045 | 2.02 ± 0.031 |
| GCUGUCACCGGUGCUUGGUACGUUAUAUUCAGCCGGUCUGAUGAGUCUCGUUCGAGACGAAACAGC [CGUUCG] | 2.0527 ± 1.7e-05 | 2.04 ± 0.047 |
| GCUGUCACCGGUGCUUGGUACGUUAUAUUCAGCCGGUCUGAUGAGUCUCGUUCCAGACGAAACAGC [CGUUCC] | 2.07 ± 0.026 | 2.028 ± 0.017 |
| GCUGUCACCGGUGCUUGGUACGUUAUAUUCAGCCGGUCUGAUGAGUCUCGUUCAAGACGAAACAGC [CGUUCA] | 2.024 ± 0.004 | 2.044 ± 0.017 |
| GCUGUCACCGGUGCUUGGUACGUUAUAUUCAGCCGGUCUGAUGAGUCUCGUUCUAGACGAAACAGC [CGUUCU] | 2.07 ± 0.034 | 2.03 ± 0.034 |
| GCUGUCACCGGUGCUUGGUACGUUAUAUUCAGCCGGUCUGAUGAGUCUCGUUGAAGACGAAACAGC [CGUUGA] | 2.013 ± 0.013 | 2.016 ± 0.0024 |
| GCUGUCACCGGUGCUUGGUACGUUAUAUUCAGCCGGUCUGAUGAGUCUCGUUGGAGACGAAACAGC [CGUUGG] | 1.931 ± 0.019 | 2.0206 ± 0.0013 |
| GCUGUCACCGGUGCUUGGUACGUUAUAUUCAGCCGGUCUGAUGAGUCUUGUGUUAGACGAAACAGC [UGUGUU] | 1.907 ± 0.019 | 1.966 ± 0.019 |
| GCUGUCACCGGUGCUUGGUACGUUAUAUUCAGCCGGUCUGAUGAGUCUUGUGUCAGACGAAACAGC [UGUGUC] | 2.041 ± 0.019 | 2.004 ± 0.012 |
| GCUGUCACCGGUGCUUGGUACGUUAUAUUCAGCCGGUCUGAUGAGUCUAGUUAUAGACGAAACAGC [AGUUAU] | 1.979 ± 0.0072 | 2.02 ± 0.018 |
| GCUGUCACCGGUGCUUGGUACGUUAUAUUCAGCCGGUCUGAUGAGUCUAGUUAGAGACGAAACAGC [AGUUAG] | 1.908 ± 0.017 | 2 ± 0.038 |
| GCUGUCACCGGUGCUUGGUACGUUAUAUUCAGCCGGUCUGAUGAGUCUAGUUAAAGACGAAACAGC [AGUUAA] | 1.9569 ± 0.00052 | 1.99 ± 0.024 |
| GCUGUCACCGGUGCUUGGUACGUUAUAUUCAGCCGGUCUGAUGAGUCUAGUUACAGACGAAACAGC [AGUUAC] | 2.007 ± 0.0061 | 1.992 ± 0.013 |
| GCUGUCACCGGUGCUUGGUACGUUAUAUUCAGCCGGUCUGAUGAGUCUAGUUCCAGACGAAACAGC [AGUUCC] | 2.06 ± 0.047 | 2.04 ± 0.059 |
| GCUGUCACCGGUGCUUGGUACGUUAUAUUCAGCCGGUCUGAUGAGUCUAGUUCUAGACGAAACAGC [AGUUCU] | 2.02 ± 0.025 | 2.014 ± 0.011 |
| GCUGUCACCGGUGCUUGGUACGUUAUAUUCAGCCGGUCUGAUGAGUCUAGUUCGAGACGAAACAGC [AGUUCG] | 1.953 ± 0.015 | 2 ± 0.025 |
| GCUGUCACCGGUGCUUGGUACGUUAUAUUCAGCCGGUCUGAUGAGUCUCGUUAUAGACGAAACAGC [CGUUAU] | 1.977 ± 0.0039 | 2.005 ± 0.016 |
| GCUGUCACCGGUGCUUGGUACGUUAUAUUCAGCCGGUCUGAUGAGUCUCGUUAGAGACGAAACAGC [CGUUAG] | 2.009 ± 0.0098 | 2.031 ± 0.006 |
| GCUGUCACCGGUGCUUGGUACGUUAUAUUCAGCCGGUCUGAUGAGUCUCGUUACAGACGAAACAGC [CGUUAC] | 2.037 ± 0.015 | 2.01 ± 0.037 |

Reference: the supplement of paper PMC6757056
